Measurements from article PMC9482650, “Quantitative fragmentomics allow affinity mapping of interactomes” (Nature Communications, 2022).
One block for each binder: values may come before it.

Key:
Experiment in all cases: holdup assay
Design in all cases: key: below the threshold = too weak to quantify, mostly under pKd 3.1 to 4
LNX1_1, Q8TBB1 = target: LNX1_1, Q8TBB1
GRIP1_2, Q9Y3R0 = target: T1, GRIP1_2, Q9Y3R0
T1 sequence (Q9Y3R0 145-248, limits assumed, looked up): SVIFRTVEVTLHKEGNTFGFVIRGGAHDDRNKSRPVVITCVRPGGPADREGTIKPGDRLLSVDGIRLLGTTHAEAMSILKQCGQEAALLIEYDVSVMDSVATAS

MAGI2_4, Q86UL8 = target: MAGI2_4, Q86UL8
MAGI2_4, Q86UL8, sequence (Q86UL8 772-865): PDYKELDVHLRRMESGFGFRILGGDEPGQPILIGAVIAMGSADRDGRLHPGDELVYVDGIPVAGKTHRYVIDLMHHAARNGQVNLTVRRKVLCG

TJP1_3, Q07157 = target: TJP1_3, Q07157
TJP1_3, Q07157, sequence (Q07157 416-512): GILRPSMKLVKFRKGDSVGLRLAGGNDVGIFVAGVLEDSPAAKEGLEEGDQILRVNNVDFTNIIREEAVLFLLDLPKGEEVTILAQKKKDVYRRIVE

DLG3_3, Q92796 = target: T2, DLG3_3, Q92796
T2 sequence (Q92796 374-475, limits assumed, looked up): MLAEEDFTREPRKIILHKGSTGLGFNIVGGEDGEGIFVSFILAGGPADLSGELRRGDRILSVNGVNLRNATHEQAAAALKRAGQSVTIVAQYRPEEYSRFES

DLG3_1, Q92796 = target: T3, DLG3_1, Q92796
T3 sequence (Q92796 125-227, limits assumed, looked up): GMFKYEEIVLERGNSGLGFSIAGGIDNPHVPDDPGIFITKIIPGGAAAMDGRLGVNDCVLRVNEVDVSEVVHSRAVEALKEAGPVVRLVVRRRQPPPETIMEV

Inadl_9, Q8NI35 = target: Inadl_9, Q8NI35
Inadl_9, Q8NI35, sequence (Q8NI35 1530-1615): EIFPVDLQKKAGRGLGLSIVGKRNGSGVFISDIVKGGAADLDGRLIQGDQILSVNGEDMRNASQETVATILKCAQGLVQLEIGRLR

TJP3_3, O95049 = target: T4, TJP3_3, O95049
T4 sequence (O95049 375-456, limits assumed, looked up): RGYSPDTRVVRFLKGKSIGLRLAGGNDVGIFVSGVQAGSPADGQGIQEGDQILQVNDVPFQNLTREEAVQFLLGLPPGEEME

LNX1_2, Q8TBB1 = target: LNX1_2, Q8TBB1
LNX1_2, Q8TBB1, sequence (Q8TBB1 371-470): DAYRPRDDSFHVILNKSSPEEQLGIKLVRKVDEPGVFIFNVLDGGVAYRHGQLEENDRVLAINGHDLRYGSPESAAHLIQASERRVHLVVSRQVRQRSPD

Inadl_8, Q8NI35 = target: Inadl_8, Q8NI35
Inadl_8, Q8NI35, sequence (Q8NI35 1425-1530): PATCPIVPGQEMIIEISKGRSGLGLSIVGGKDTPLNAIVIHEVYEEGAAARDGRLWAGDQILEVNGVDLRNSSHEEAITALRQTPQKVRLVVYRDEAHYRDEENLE

FRMPD2_3, Q68DX3 = target: FRMPD2_3, Q68DX3
FRMPD2_3, Q68DX3, sequence (Q68DX3 1073-1166): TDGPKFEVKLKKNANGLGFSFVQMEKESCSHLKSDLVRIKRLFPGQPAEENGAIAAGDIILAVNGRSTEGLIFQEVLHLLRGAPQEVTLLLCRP

DLG3_2, Q92796 = target: T5, DLG3_2, Q92796
T5 sequence (Q92796 221-321, limits assumed, looked up): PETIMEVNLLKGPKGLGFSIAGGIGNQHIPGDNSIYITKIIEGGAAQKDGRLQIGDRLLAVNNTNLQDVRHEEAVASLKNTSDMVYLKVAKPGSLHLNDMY

MAGI2_6, Q86UL8 = target: MAGI2_6, Q86UL8
MAGI2_6, Q86UL8, sequence (Q86UL8 1141-1229): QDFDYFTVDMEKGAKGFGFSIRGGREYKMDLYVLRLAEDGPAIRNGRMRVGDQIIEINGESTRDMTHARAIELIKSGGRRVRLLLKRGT

Inadl_3, Q8NI35 = target: Inadl_3, Q8NI35
Inadl_3, Q8NI35, sequence (Q8NI35 359-469): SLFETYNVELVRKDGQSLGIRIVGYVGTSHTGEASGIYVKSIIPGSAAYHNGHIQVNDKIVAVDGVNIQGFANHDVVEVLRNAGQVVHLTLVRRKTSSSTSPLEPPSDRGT

PTPN13_1, Q12923 = target: T6, PTPN13_1, Q12923
T6 sequence (Q12923 1088-1188, limits assumed, looked up): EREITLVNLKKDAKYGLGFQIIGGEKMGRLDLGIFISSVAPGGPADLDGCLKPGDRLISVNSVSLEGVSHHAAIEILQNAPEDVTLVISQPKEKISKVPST

CASK, O14936 = target: CASK, O14936
CASK, O14936, sequence (O14936 487-570): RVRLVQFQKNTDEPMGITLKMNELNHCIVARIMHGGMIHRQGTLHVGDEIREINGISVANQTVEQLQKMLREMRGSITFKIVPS

TX1BP3, O14907 = target: T7, TX1BP3, O14907
T7 sequence (O14907 10-122, limits assumed, looked up): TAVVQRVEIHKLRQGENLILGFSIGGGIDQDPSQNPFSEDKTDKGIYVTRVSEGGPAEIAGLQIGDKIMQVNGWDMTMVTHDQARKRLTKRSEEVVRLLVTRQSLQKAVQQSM

NHERF4_4, Q86UT5 = target: NHERF4_4, Q86UT5
NHERF4_4, Q86UT5, sequence (Q86UT5 464-550): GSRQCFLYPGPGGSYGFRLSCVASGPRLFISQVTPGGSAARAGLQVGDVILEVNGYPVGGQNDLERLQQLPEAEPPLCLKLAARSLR

LIN7B, Q9HAP6 = target: T8, LIN7B, Q9HAP6
T8 sequence (Q9HAP6 88-185, limits assumed, looked up): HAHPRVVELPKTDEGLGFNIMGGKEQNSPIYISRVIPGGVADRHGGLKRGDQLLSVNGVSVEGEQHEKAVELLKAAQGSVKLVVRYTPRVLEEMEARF

NHERF3_3, Q5T2W1 = target: T9, NHERF3_3, Q5T2W1
T9 sequence (Q5T2W1 238-333, limits assumed, looked up): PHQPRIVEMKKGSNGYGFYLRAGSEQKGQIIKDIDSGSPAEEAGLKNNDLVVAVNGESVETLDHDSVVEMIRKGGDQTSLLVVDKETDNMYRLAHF

SNTG1, Q9NSN8 = target: T10, SNTG1, Q9NSN8
T10 sequence (Q9NSN8 52-150, limits assumed, looked up): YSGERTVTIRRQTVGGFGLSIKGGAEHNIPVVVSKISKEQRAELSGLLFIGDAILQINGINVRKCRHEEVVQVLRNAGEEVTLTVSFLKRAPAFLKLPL

MPP2, Q14168 = target: T11, MPP2, Q14168
T11 sequence (Q14168 180-250, limits assumed, looked up): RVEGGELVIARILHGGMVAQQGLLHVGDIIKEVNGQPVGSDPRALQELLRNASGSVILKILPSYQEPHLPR

APBA1_1, Q02410 = target: T12, APBA1_1, Q02410
T12 sequence (Q02410 651-752, limits assumed, looked up): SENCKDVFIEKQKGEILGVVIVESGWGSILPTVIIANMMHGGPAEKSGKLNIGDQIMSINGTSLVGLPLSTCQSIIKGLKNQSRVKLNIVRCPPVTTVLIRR

DLG4_2, P78352 = target: DLG4_2, P78352
DLG4_2, P78352, sequence (P78352 155-259): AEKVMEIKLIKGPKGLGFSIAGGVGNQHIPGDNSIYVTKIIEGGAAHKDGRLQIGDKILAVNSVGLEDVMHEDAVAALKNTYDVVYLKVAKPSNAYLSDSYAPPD

GIPC2, Q8TF65 = target: GIPC2, Q8TF65
GIPC2, Q8TF65, sequence (Q8TF65 112-203): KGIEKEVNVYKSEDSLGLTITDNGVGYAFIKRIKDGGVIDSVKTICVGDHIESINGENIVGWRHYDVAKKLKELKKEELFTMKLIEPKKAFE

MAGI1_1, Q96QZ7 = target: MAGI1_1, Q96QZ7
MAGI1_1, Q96QZ7, sequence (Q96QZ7 1-106): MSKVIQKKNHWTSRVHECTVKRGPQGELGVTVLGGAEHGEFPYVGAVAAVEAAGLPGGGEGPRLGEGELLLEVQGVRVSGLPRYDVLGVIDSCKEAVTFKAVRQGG

[1] = plain residues with an end cap or a label only (N-terminal biotin on a linker: ahx)
[2] = plain residues with an end cap or a label only (N-terminal biotin on a linker: ttds)

LNX1_1, Q8TBB1, sequence (Q8TBB1 261-371): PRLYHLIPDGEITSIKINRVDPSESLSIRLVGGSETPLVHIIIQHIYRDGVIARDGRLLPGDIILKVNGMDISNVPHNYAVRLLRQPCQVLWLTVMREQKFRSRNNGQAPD

pKd (LNX1_1, Q8TBB1; [1]): 4.13
pKd (GRIP1_2, Q9Y3R0; [1]): below the threshold
pKd (MAGI2_4, Q86UL8; [1]): 3.61
pKd (TJP1_3, Q07157; [1]): below the threshold
pKd (DLG3_3, Q92796; [1]): below the threshold
pKd (DLG3_1, Q92796; [1]): 4.15
pKd (Inadl_9, Q8NI35; [1]): below the threshold
pKd (TJP3_3, O95049; [1]): below the threshold
pKd (LNX1_2, Q8TBB1; [1]): below the threshold
pKd (Inadl_8, Q8NI35; [1]): below the threshold
pKd (FRMPD2_3, Q68DX3; [1]): below the threshold
pKd (DLG3_2, Q92796; [1]): 4.96
pKd (MAGI2_6, Q86UL8; [1]): 4.65
pKd (Inadl_3, Q8NI35; [1]): 3.91
pKd (PTPN13_1, Q12923; [1]): below the threshold
pKd (CASK, O14936; [1]): below the threshold
pKd (TX1BP3, O14907; [1]): 4.74
pKd (NHERF4_4, Q86UT5; [1]): below the threshold
pKd (LIN7B, Q9HAP6; [1]): below the threshold
pKd (NHERF3_3, Q5T2W1; [1]): below the threshold
pKd (SNTG1, Q9NSN8; [1]): 4.8
pKd (MPP2, Q14168; [1]): below the threshold
pKd (APBA1_1, Q02410; [1]): below the threshold
pKd (DLG4_2, P78352; [1]): 4.86
pKd (GIPC2, Q8TF65; [1]): 4.33
pKd (MAGI1_1, Q96QZ7; [1]): below the threshold
Binder: EKLSSIESDV [GRIN2B, Q13224]

pKd (LNX1_1, Q8TBB1; [2]): 4.51
pKd (GRIP1_2, Q9Y3R0; [2]): below the threshold
pKd (MAGI2_4, Q86UL8; [2]): 4.4
pKd (TJP1_3, Q07157; [2]): below the threshold
pKd (DLG3_3, Q92796; [2]): 3.88
pKd (DLG3_1, Q92796; [2]): 4.67
pKd (Inadl_9, Q8NI35; [2]): below the threshold
pKd (TJP3_3, O95049; [2]): below the threshold
pKd (LNX1_2, Q8TBB1; [2]): below the threshold
pKd (Inadl_8, Q8NI35; [2]): below the threshold
pKd (FRMPD2_3, Q68DX3; [2]): below the threshold
pKd (DLG3_2, Q92796; [2]): 5.71
pKd (MAGI2_6, Q86UL8; [2]): 5.35
pKd (Inadl_3, Q8NI35; [2]): 4.46
pKd (PTPN13_1, Q12923; [2]): below the threshold
pKd (CASK, O14936; [2]): below the threshold
pKd (TX1BP3, O14907; [2]): 5.03
pKd (NHERF4_4, Q86UT5; [2]): below the threshold
pKd (LIN7B, Q9HAP6; [2]): below the threshold
pKd (NHERF3_3, Q5T2W1; [2]): below the threshold
pKd (SNTG1, Q9NSN8; [2]): 5.68
pKd (MPP2, Q14168; [2]): below the threshold
pKd (APBA1_1, Q02410; [2]): below the threshold
pKd (DLG4_2, P78352; [2]): 5.55
pKd (GIPC2, Q8TF65; [2]): 4.55
pKd (MAGI1_1, Q96QZ7; [2]): below the threshold
Binder: HIVEALETDV [PBK, Q96KB5]

pKd (LNX1_1, Q8TBB1; [2]): 4.03
pKd (GRIP1_2, Q9Y3R0; [2]): below the threshold
pKd (MAGI2_4, Q86UL8; [2]): 3.99
pKd (TJP1_3, Q07157; [2]): below the threshold
pKd (DLG3_3, Q92796; [2]): 3.88
pKd (DLG3_1, Q92796; [2]): 4.59
pKd (Inadl_9, Q8NI35; [2]): below the threshold
pKd (TJP3_3, O95049; [2]): below the threshold
pKd (LNX1_2, Q8TBB1; [2]): 3.62
pKd (Inadl_8, Q8NI35; [2]): 3.53
pKd (FRMPD2_3, Q68DX3; [2]): below the threshold
pKd (DLG3_2, Q92796; [2]): 5.61
pKd (MAGI2_6, Q86UL8; [2]): 4.55
pKd (Inadl_3, Q8NI35; [2]): 3.8
pKd (PTPN13_1, Q12923; [2]): below the threshold
pKd (CASK, O14936; [2]): below the threshold
pKd (TX1BP3, O14907; [2]): 5.04
pKd (NHERF4_4, Q86UT5; [2]): below the threshold
pKd (LIN7B, Q9HAP6; [2]): below the threshold
pKd (NHERF3_3, Q5T2W1; [2]): below the threshold
pKd (SNTG1, Q9NSN8; [2]): 4.89
pKd (MPP2, Q14168; [2]): below the threshold
pKd (APBA1_1, Q02410; [2]): below the threshold
pKd (DLG4_2, P78352; [2]): 5.44
pKd (GIPC2, Q8TF65; [2]): 3.75
pKd (MAGI1_1, Q96QZ7; [2]): below the threshold
Binder: MERLRVETDV [ARHGEF16, Q5VV41]
